Results published in PMC8277605, “Binding of gephyrin to microtubules is regulated by its phosphorylation at Ser270” (Histochemistry and Cell Biology, 2021).

Legend:
[1] = target: microtubules polymerized from endogenous tubulin of HEK293T cell extracts (human (endogenous in HEK293T)) (UniProt P68363); experiment: co-sedimentation; MT co-sedimentation assay with HEK293T lysates only (gephyrin alone, gephyrin or mutant gephyrin with CbII(-SH3)); endogenous cellular tubulin polymerized with 2 mM GTP and 20 uM paclitaxel in MES buffer; 100,000 x g; immunoblot with mAb7a, R-20, DM1alpha; band ratios standardized to the tubulin signal
microtubules polymerized from endogenous tubulin of HEK293T cell extracts (human (endogenous in HEK293T)), sequence (P68363 whole entry, chain 1 of 2): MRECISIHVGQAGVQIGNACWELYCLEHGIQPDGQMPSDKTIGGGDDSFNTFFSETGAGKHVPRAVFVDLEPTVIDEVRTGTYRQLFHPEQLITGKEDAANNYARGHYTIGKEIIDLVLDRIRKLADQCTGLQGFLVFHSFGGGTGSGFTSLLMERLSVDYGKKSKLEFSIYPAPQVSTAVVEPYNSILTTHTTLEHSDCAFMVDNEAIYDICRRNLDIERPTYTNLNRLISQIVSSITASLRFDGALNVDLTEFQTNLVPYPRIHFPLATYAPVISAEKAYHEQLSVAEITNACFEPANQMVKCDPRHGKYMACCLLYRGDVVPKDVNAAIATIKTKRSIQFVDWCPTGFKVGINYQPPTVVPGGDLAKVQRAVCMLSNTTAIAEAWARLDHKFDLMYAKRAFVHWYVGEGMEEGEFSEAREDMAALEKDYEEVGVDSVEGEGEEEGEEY
microtubules polymerized from endogenous tubulin of HEK293T cell extracts (human (endogenous in HEK293T)), sequence (P07437 whole entry, chain 2 of 2, further chain): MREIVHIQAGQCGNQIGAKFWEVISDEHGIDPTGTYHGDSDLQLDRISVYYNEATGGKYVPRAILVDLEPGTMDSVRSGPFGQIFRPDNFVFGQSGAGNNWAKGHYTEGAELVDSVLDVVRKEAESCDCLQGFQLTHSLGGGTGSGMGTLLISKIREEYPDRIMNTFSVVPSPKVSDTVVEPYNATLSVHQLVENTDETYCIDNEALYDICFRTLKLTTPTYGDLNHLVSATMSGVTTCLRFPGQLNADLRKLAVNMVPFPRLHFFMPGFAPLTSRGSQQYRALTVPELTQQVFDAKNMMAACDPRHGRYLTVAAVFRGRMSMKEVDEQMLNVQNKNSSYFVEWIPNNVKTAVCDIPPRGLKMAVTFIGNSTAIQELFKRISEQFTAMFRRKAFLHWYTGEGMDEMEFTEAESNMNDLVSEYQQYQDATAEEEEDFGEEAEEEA

[2] = target: the molecule itself; experiment: native gel or EMSA; blue-native PAGE of 100 ug cytosol per lane, second dimension 12.5% SDS-PAGE, Western blot for gephyrin; NativeMARK standard

recombinant gephyrin (P1), N-terminally 6-histidine-tagged (natural protein)
ratio of the mAb7a signal in the insoluble to soluble fraction [1]: 1.5

recombinant gephyrin (P1) phosphorylated at Ser270 (detected by mAb7a) (natural protein)
ratio of the mAb7a signal in the insoluble to soluble fraction [1]: 0.17

B1: gephyrin, endogenous in HEK293T cells (natural protein, human (endogenous in HEK293T), UniProt Q9NQX3 1-736, looked up)
chain: MATEGMILTNHDHQIRVGVLTVSDSCFRNLAEDRSGINLKDLVQDPSLLGGTISAYKIVPDEIEEIKETLIDWCDEKELNLILTTGGTGFAPRDVTPEATKEVIEREAPGMALAMLMGSLNVTPLGMLSRPVCGIRGKTLIINLPGSKKGSQECFQFILPALPHAIDLLRDAIVKVKEVHDELEDLPSPPPPLSPPPTTSPHKQTEDKGVQCEEEEEEKKDSGVASTEDSSSSHITAAAIAAKIPDSIISRGVQVLPRDTASLSTTPSESPRAQATSRLSTASCPTPKVQSRCSSKENILRASHSAVDITKVARRHRMSPFPLTSMDKAFITVLEMTPVLGTEIINYRDGMGRVLAQDVYAKDNLPPFPASVKDGYAVRAADGPGDRFIIGESQAGEQPTQTVMPGQVMRVTTGAPIPCGADAVVQVEDTELIRESDDGTEELEVRILVQARPGQDIRPIGHDIKRGECVLAKGTHMGPSEIGLLATVGVTEVEVNKFPVVAVMSTGNELLNPEDDLLPGKIRDSNRSTLLATIQEHGYPTINLGIVGDNPDDLLNALNEGISRADVIITSGGVSMGEKDYLKQVLDIDLHAQIHFGRVFMKPGLPTTFATLDIDGVRKIIFALPGNPVSAVVTCNLFVVPALRKMQGILDPRPTIIKARLSCDVKLDPRPEYHRCILTWHHQEPLPWAQSTGNQMSSRLMSMRSANGLLMLPPKTEQYVELHKGEVVDVMVIGRL
notes: human gephyrin, endogenous in HEK293T cells; also called endogenous gephyrin; source: endogenous, HEK293T protein extract (cytosol)
stoichiometry N [2]: 6

B2: gephyrin, endogenous in U2OS cells (natural protein, human (endogenous in U2OS), UniProt Q9NQX3 1-736, looked up)
chain: B1 chain
notes: human gephyrin, endogenous in U2OS osteosarcoma cells; also called endogenous gephyrin; source: endogenous, U2OS protein extract (cytosol)
stoichiometry N [2]: 6

B3: gephyrin from liver tissue (natural protein, UniProt Q03555 1-768, looked up)
chain: MATEGMILTNHDHQIRVGVLTVSDSCFRNLAEDRSGINLKDLVQDPSLLGGTISAYKIVPDEIEEIKETLIDWCDEKELNLILTTGGTGFAPRDVTPEKFPTFPFCGLQKGATKEVIEREAPGMALAMLMGSLNVTPLGMLSRPVCGIRGKTLIINLPGSKKGSQECFQFILPALPHAIDLLRDAIVKVKEVHDELEDLPSPPPPLSPPPTTSPHKQTEDKGVQCEEEEEEKKDSGVASTEDSSSSHITAAALAAKIPDSIISRGVQVLPRDTASLSTTPSESPRAQATSRLSTASCPTPKQIRRPDESKGVASRVGSLKVQSRCSSKENILRASHSAVDITKVARRHRMSPFPLTSMDKAFITVLEMTPVLGTEIINYRDGMGRVLAQDVYAKDNLPPFPASVKDGYAVRAADGPGDRFIIGESQAGEQPTQTVMPGQVMRVTTGAPIPCGADAVVQVEDTELIRESDDGTEELEVRILVQARPGQDIRPIGHDIKRGECVLAKGTHMGPSEIGLLATVGVTEVEVNKFPVVAVMSTGNELLNPEDDLLPGKIRDSNRSTLLATIQEHGYPTINLGIVGDNPDDLLNALNEGISRADVIITSGGVSMGEKDYLKQVLDIDLHAQIHFGRVFMKPGLPTTFATLDIDGVRKIIFALPGNPVSAVVTCNLFVVPALRKMQGILDPRPTIIKARLSCDVKLDPRPEYHRCILTWHHQEPLPWAQSTGNQMSSRLMSMRSANGLLMLPPKTEQYVELHKGEVVDVMVIGRL
notes: gephyrin endogenous in liver tissue; source: endogenous, liver protein extract
stoichiometry N [2]: 6
